Binding result, Kd and IC50 data for 3 molecules are collected here from US20260297135 (published 2026).

In assay [1] the target is T1, integrin αvβ6 (human, UniProt P06756).
T1 chain 1: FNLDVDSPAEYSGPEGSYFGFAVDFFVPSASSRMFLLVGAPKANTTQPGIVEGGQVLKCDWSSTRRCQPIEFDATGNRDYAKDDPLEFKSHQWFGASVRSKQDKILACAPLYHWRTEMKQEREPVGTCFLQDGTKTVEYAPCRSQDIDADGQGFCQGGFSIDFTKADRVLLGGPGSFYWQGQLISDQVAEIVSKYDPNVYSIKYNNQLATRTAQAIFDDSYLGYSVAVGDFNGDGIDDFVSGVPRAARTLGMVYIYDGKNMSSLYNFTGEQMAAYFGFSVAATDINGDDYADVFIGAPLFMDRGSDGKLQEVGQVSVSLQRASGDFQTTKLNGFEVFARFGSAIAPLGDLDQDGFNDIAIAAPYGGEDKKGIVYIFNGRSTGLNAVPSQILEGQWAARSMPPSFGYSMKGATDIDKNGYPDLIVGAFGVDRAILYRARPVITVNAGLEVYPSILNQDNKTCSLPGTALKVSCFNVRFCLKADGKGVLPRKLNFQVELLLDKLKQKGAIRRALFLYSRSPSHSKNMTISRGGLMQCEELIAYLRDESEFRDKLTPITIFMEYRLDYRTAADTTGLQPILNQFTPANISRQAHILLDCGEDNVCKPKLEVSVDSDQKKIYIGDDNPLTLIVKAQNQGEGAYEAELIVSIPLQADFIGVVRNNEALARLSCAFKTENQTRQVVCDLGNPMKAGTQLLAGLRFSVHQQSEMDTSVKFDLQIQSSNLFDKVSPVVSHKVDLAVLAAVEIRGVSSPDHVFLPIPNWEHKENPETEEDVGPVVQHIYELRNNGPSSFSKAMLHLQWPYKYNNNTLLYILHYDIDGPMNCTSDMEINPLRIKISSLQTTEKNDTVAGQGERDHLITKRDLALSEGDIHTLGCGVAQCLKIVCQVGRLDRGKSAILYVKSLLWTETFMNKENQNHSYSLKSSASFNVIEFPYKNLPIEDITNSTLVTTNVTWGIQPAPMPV
T1 chain 2: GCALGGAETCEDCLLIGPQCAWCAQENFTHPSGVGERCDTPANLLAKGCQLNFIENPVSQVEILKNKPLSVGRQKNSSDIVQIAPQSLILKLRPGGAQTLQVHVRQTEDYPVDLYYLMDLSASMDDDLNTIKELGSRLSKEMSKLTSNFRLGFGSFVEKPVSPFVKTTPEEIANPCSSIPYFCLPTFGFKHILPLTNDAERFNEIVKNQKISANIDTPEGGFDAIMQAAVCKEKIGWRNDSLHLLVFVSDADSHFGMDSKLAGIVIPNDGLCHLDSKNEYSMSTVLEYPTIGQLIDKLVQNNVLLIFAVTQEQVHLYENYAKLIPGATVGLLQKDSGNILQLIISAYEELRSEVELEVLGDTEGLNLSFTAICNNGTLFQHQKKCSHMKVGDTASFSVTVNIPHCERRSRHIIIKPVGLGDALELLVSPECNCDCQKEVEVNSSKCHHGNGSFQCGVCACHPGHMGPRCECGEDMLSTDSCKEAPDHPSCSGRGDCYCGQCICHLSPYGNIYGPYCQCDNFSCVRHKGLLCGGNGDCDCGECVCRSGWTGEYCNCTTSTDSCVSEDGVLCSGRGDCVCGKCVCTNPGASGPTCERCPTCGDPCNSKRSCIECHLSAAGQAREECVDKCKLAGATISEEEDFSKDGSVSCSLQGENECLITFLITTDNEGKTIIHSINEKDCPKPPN
Nature of the assay: BLI, at 500 nM.

The target in assay [2] is T2, integrin αvβ8 (human, UniProt P06756).
T2 chain 1: T1 chain 1
T2 chain 2: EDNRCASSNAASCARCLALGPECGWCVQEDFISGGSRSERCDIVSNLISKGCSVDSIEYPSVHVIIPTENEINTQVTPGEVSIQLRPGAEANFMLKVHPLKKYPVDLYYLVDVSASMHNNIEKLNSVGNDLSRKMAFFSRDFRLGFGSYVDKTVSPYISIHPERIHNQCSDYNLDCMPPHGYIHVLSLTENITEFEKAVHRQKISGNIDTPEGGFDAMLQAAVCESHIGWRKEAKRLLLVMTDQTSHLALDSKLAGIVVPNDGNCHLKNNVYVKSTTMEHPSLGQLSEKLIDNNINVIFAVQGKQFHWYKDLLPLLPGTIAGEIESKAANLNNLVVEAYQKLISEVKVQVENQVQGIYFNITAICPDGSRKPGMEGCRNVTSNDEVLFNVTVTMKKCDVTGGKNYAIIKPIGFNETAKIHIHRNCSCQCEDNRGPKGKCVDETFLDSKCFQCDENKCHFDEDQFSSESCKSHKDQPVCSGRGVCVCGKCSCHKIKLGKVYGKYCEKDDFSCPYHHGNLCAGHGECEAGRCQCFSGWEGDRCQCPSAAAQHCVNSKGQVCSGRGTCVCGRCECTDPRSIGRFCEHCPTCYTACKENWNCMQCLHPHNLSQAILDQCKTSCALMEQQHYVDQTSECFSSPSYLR
The assay can be described thus: BLI. In general terms: Biolayer interferometry detects binding as a change in optical thickness at a sensor tip.

Assay [3] has as its target T2, integrin αvβ8. The assay can be described thus: competition, hLAP1.
Assay [4] concerns the target T1, integrin αvβ6. Nature of the assay: competition, hLAP1.
The target in assay [5] is T1, integrin αvβ6. Nature of the assay: BLI.

Numbering of substitutions follows the chain as printed.

B1: B8_BP-LATY (avb8_3_LATY) (designed binder)
chain: TKCVVRFNFRGDLATYALKAVKDHLKKEGPHWNITTHNDDEVYLVVRGIHESDAKRIAKWVESTIPGISVETQCD
For the molecule B1, the binding result in assay [1] is recorded as “no binding”. The molecule also showed a Kd in assay [2] of 0.5 nM.

B2: B8_BP_dslf (avb8_3) (designed binder)
chain: B1 chain with L13M, T15V
The molecule B2 displayed an IC50 in assay [3] of 2.68 nM. Moreover, the binding result in assay [4] is on record as “no binding”. This molecule had a Kd in assay [2] of 1.9 nM.

B3: avb8_12 (LATI) (designed binder)
chain: B1 chain with Y16I
For the molecule B3, the affinity in assay [5], expressed as Kd, was 1.13 nM.

In general, Kd refers to the concentration at which binding is half-saturated. A higher Kd goes with a looser complex. What is called IC50 is the midpoint of a concentration-inhibition curve. A lower IC50 goes with greater potency in that assay.
